Test results from patent publication US20100310573A1.

Target: recombinant human CD4 (catalogue number: 514-CD/CF, manufactured by R&D Systems) (human) (UniProt P01730)
Assay: SPR, Biacore T100; antibody captured on anti-mouse IgG chip, recombinant human CD4 flowed; 1:1 binding model

Kd | koff | kon | Substance
0.117 nM | 0.000129 s⁻¹ | 1.1e+06 M⁻¹ s⁻¹ | Leu-3a (BD Biosciences), commercially available anti-human CD4 mouse antibody
2.9 nM | 0.00306 s⁻¹ | 1.05e+06 M⁻¹ s⁻¹ | anti-CD4 mouse monoclonal antibody OKT4 (manufactured by BioLegend)
0.352 nM | 0.000156 s⁻¹ | 444000 M⁻¹ s⁻¹ | 13B8.2 (Beckman Coulter), commercially available anti-human CD4 mouse antibody
